Results: PMC11383374

Molecular target: the protein biologic (purified DNASE1-Fc enzyme biologic analysed by size-exclusion chromatography with light scattering) (not stated (murine and human isoforms were made)) (UniProt P49183)
Experiment: SEC-MALS; size-exclusion chromatography with light scattering; two separate concentrations of sample loading; single peak; hydrodynamic radius 5.3 nm

stoichiometry N: 2
Substance: the protein biologic (purified DNASE1-Fc enzyme biologic analysed by size-exclusion chromatography with light scattering) (from UniProt P49183 23-284) (Fc fusion)
